The record followed here is publication PMC6082870.

A short description of data set [1]: analytical size exclusion chromatography. The following applies: glycan gained; control: wild type.
Data set [2] in a line: lysyl hydroxylase activity, Succinate-Glo luminescence. To be noted: glycan gained; control: wild type.

B1: lysyl hydroxylase 3 (LH3/PLOD3): T672N (protein)
parent chain: MTSSGPGPRFLLLLPLLLPPAASASDRPRGRDPVNPEKLLVITVATAETEGYLRFLRSAEFFNYTVRTLGLGEEWRGGDVARTVGGGQKVRWLKKEMEKYADREDMIIMFVDSYDVILAGSPTELLKKFVQSGSRLLFSAESFCWPEWGLAEQYPEVGTGKRFLNSGGFIGFATTIHQIVRQWKYKDDDDDQLFYTRLYLDPGLREKLSLNLDHKSRIFQNLNGALDEVVLKFDRNRVRIRNVAYDTLPIVVHGNGPTKLQLNYLGNYVPNGWTPEGGCGFCNQDRRTLPGGQPPPRVFLAVFVEQPTPFLPRFLQRLLLLDYPPDRVTLFLHNNEVFHEPHIADSWPQLQDHFSAVKLVGPEEALSPGEARDMAMDLCRQDPECEFYFSLDADAVLTNLQTLRILIEENRKVIAPMLSRHGKLWSNFWGALSPDEYYARSEDYVELVQRKRVGVWNVPYISQAYVIRGDTLRMELPQRDVFSGSDTDPDMAFCKSFRDKGIFLHLSNQHEFGRLLATSRYDTEHLHPDLWQIFDNPVDWKEQYIHENYSRALEGEGIVEQPCPDVYWFPLLSEQMCDELVAEMEHYGQWSGGRHEDSRLAGGYENVPTVDIHMKQVGYEDQWLQLLRTYVGPMTESLFPGYHTKARAVMNFVVRYRPDEQPSLRPHHDSSTFTLNVALNHKGLDYEGGGCRFLRYDCVISSPRKGWALLHPGRLTHYHEGLPTTWGTRYIMVSFVDP
As to B1, in data set [1], the oligomerisation entry was “decreases”.

B2: lysyl hydroxylase 3 (LH3/PLOD3): R714N (protein)
parent chain: MTSSGPGPRFLLLLPLLLPPAASASDRPRGRDPVNPEKLLVITVATAETEGYLRFLRSAEFFNYTVRTLGLGEEWRGGDVARTVGGGQKVRWLKKEMEKYADREDMIIMFVDSYDVILAGSPTELLKKFVQSGSRLLFSAESFCWPEWGLAEQYPEVGTGKRFLNSGGFIGFATTIHQIVRQWKYKDDDDDQLFYTRLYLDPGLREKLSLNLDHKSRIFQNLNGALDEVVLKFDRNRVRIRNVAYDTLPIVVHGNGPTKLQLNYLGNYVPNGWTPEGGCGFCNQDRRTLPGGQPPPRVFLAVFVEQPTPFLPRFLQRLLLLDYPPDRVTLFLHNNEVFHEPHIADSWPQLQDHFSAVKLVGPEEALSPGEARDMAMDLCRQDPECEFYFSLDADAVLTNLQTLRILIEENRKVIAPMLSRHGKLWSNFWGALSPDEYYARSEDYVELVQRKRVGVWNVPYISQAYVIRGDTLRMELPQRDVFSGSDTDPDMAFCKSFRDKGIFLHLSNQHEFGRLLATSRYDTEHLHPDLWQIFDNPVDWKEQYIHENYSRALEGEGIVEQPCPDVYWFPLLSEQMCDELVAEMEHYGQWSGGRHEDSRLAGGYENVPTVDIHMKQVGYEDQWLQLLRTYVGPMTESLFPGYHTKARAVMNFVVRYRPDEQPSLRPHHDSSTFTLNVALNHKGLDYEGGGCRFLRYDCVISSPRKGWALLHPGRLTHYHEGLPTTWGTRYIMVSFVDP
B2: in data set [1], the oligomerisation result is “decreases”.

B3: lysyl hydroxylase 3 (LH3/PLOD3): W148N-L150T (protein)
parent chain: MTSSGPGPRFLLLLPLLLPPAASASDRPRGRDPVNPEKLLVITVATAETEGYLRFLRSAEFFNYTVRTLGLGEEWRGGDVARTVGGGQKVRWLKKEMEKYADREDMIIMFVDSYDVILAGSPTELLKKFVQSGSRLLFSAESFCWPEWGLAEQYPEVGTGKRFLNSGGFIGFATTIHQIVRQWKYKDDDDDQLFYTRLYLDPGLREKLSLNLDHKSRIFQNLNGALDEVVLKFDRNRVRIRNVAYDTLPIVVHGNGPTKLQLNYLGNYVPNGWTPEGGCGFCNQDRRTLPGGQPPPRVFLAVFVEQPTPFLPRFLQRLLLLDYPPDRVTLFLHNNEVFHEPHIADSWPQLQDHFSAVKLVGPEEALSPGEARDMAMDLCRQDPECEFYFSLDADAVLTNLQTLRILIEENRKVIAPMLSRHGKLWSNFWGALSPDEYYARSEDYVELVQRKRVGVWNVPYISQAYVIRGDTLRMELPQRDVFSGSDTDPDMAFCKSFRDKGIFLHLSNQHEFGRLLATSRYDTEHLHPDLWQIFDNPVDWKEQYIHENYSRALEGEGIVEQPCPDVYWFPLLSEQMCDELVAEMEHYGQWSGGRHEDSRLAGGYENVPTVDIHMKQVGYEDQWLQLLRTYVGPMTESLFPGYHTKARAVMNFVVRYRPDEQPSLRPHHDSSTFTLNVALNHKGLDYEGGGCRFLRYDCVISSPRKGWALLHPGRLTHYHEGLPTTWGTRYIMVSFVDP
For B3, the enzymatic_activity result in data set [2] is “no change”. Further, in data set [1], the oligomerisation result is listed as “no change”.
